{"source": "patent CN110526967A", "about": "(UNIV NORTHWEST A&F, dated 2019)", "binders": {"B1": {"name": "金黄色葡萄球菌肠毒素A纳米抗体A13 (VHH)", "VHH": "ESGGGSVQAGGSLRLSCAASGDAYMCKCMGWFRQGPGKEREKVAAIYITDGSTYYADSVKGRFTLSQDNAKNTVYLQMNSLKPEDTAMYYCAASTFYGCETGLHGYNYWGQGTQVTVS"}}, "key": {"金黄色葡萄球菌肠毒素A": {"target": "T1, 金黄色葡萄球菌肠毒素A (Staphylococcus aureus, UniProt P0A0L2 25-257)", "T1 sequence": "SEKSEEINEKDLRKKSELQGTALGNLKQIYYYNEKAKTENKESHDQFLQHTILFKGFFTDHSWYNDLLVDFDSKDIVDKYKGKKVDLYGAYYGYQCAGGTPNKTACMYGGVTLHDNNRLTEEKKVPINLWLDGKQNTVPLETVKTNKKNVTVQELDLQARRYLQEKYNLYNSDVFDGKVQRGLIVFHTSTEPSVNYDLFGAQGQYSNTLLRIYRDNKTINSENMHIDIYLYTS", "experiment": "phage ELISA on coated SEA"}, "金黄色葡萄球菌肠毒素B": {"target": "T2, 金黄色葡萄球菌肠毒素B (Staphylococcus aureus, UniProt P01552 28-266)", "T2 sequence": "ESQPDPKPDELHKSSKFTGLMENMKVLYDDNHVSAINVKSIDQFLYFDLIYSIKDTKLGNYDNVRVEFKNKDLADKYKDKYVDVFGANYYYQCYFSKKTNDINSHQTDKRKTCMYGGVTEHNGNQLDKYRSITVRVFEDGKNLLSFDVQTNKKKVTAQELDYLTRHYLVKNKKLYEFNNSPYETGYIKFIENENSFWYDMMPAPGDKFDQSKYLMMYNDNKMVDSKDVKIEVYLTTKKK", "experiment": "direct ELISA, antigen coated, HRP-conjugated nanobody"}}, "data": [{"binder": "B1", "values": [{"measurement": "binding result", "setting": "金黄色葡萄球菌肠毒素A", "result": "binds"}, {"measurement": "binding result", "setting": "金黄色葡萄球菌肠毒素B", "result": "no binding (tested: 500ng/mL (coating))"}]}]}
